Experimental data as given in US20210283054A1.

Assays:
[1] = biological target: Fluorogenic Homopolymer (DP=20) of NorGly-E(EDANS)…(dabcyl)GSGSG-NH2; assay: cell-based or functional assay
[2] = biological target: NorGly-E(EDANS)…(dabcyl)GSGSG-NH2; assay: cell-based or functional assay
[3] = test system: T1, Thrombin Homopolymer (10 mer)
T1 sequence: GALVPRGSGERDG

[4] = test system: T2, Thrombin Homopolymer (20 mer)
T2 sequence: GALVPRGSGERDG

[5] = test system: T3, Thrombin Homopolymer (30 mer)
T3 sequence: GALVPRGSGERDG

[6] = test system: T4, thrombin substrate monomer (norbornene-GALVPRGSGERDG-NH2)
T4 sequence: GALVPRGSGERDG

| Substance | Homopolymer V0 (initial velocity of proteolysis) [1] | Monomer V0 (initial velocity of proteolysis) [2] | fold faster initial rate (V0) of the monomer than of the homopolymer [2] | proteolytic cleavage by RP-HPLC [3] | proteolytic cleavage by RP-HPLC [4] | proteolytic cleavage by RP-HPLC [5] | proteolytic cleavage by RP-HPLC [6] |
| --- | --- | --- | --- | --- | --- | --- | --- |
| Pronase (Roche, cat. #10165921001) | 0.0021 µM/min | 0.2 µM/min | 17 to 95 fold | – | – | – | – |
| thrombin (Sigma, cat. #T6884-100UN) | – | – | – | homopolymers at several degrees of polymerization were resistant to cleavage relative to the monomer, albeit not completely shut off from proteolysis | homopolymers at several degrees of polymerization were resistant to cleavage relative to the monomer, albeit not completely shut off from proteolysis | homopolymers at several degrees of polymerization were resistant to cleavage relative to the monomer, albeit not completely shut off from proteolysis | the monomeric peptide was readily degraded by thrombin |
